Source: the DeepSol protein solubility set

Assay: soluble on expression in E. coli; label from the status in PepcDB or PDB records

Row | Sequence | soluble on expression in E. coli
1 | MTRQERILQLPFFENKRELAEQVLKMEREEHVYLPDQFEIKQVPPYSFAEKEAIIGRIHEFYFVSIGSDGAWKYQLFKDEMKCREFFVTLSGITDQQIAFWFNNIELLKGA | not soluble
2 | MTRTETLELLVATLQQTNASQSESIRQLTRQNEQLQNKLDELLAQVAWLNRQLFGRKSEKLSRLDPNQLSLFEQPVQSLEPEPLEETVVEQTTTPMVTKKKERQNRKLLEGLPVVEVVIEPQDLDLTKYKRIGEEHTRTLEFEPGKLYVKEIIRPKYGLKDNTALPQEYQDGIVIADLPLLPIYKGLPGASLLAEILLQKYEYHVPFYRQIREFHHLGLKIPENTLHGWFKPACELLKPLYDELKKQVLAVDYIQVDETTLPIINKQSHKAVREYLWMVRAVTSGLVFFHYDDGSRSQETARNLLEPFKGYLQSDGYAAYNVFEGKERVCLVGCLVHIRRHYETAKEENKSQAKYVLAKIQELYRIEQAADIQGISPEMRMSKRQKQALPILDELEQWMETTYPKVLPKSQMGQAIAYAYTLWPRMRNYLKDGKLKIDNNLAENAIRPIALSRKNFLFCGNHEAAENTDVICSLLASCKASQVNPREWLTEIIAWLPYYTRDKGKDLKELLPNYWKLRRSKEI | not soluble
3 | MTRYALLVRGINVGGKNKVVMAELRQELTNLGLEKVESYINSGNIFFTSIDSKAQLVEKLETFFAVHYPFIQSFSLLSLEDFEAELENLPAWWSRDLARKDFLFYTEGLDVDQVIATVESLELKDEVLYFGKLGIFWGKFSEESYSKTAYHKYLLKVPFYRHITIRNAKTFDKIGQMLKK | soluble
4 | MTSAAQLTALLHLASPALPVGAFSYSQGLEAAVEARHVHDEASAARWIAEGLAVLAACEAPLWLLQYADWQAGRLDAVAERDGWFLATRETRELRLETAQMGWSLARLIAQMGWGAPAMRDALAARAAITFPTAFAAAAVALGIEARDGLTAYSFAWVENQVAAAVKAIPLGQAAGQRILFGLHAAVGQAAEDAARRAACHPPELSTFSPGLGVLSARHETQYSRLFRSLEHHHHHH | not soluble
5 | MTSAHDIDLQQILTDRLTGASPDLLRELLTMFIHTLMGAEADALCGAGYGQRSEERTNSRNGYRHRDFDTRVGTLDVAIPKLRSGSYFPDWLLERRKRAEKALTTVVATCYLLGVSTRRMDRLVDTLGITGLSKSQVSVMAKDLDTQVEAFRSRPLDTGPYTFVAADALVLKVRENGRVVNVHTLVAVGVNAEGYREILGVDVTSSEDGAGWLAFFRSLVARGLGGVRLVTSDAHAGLVAAIGGTLPGASWQRCRTHYSTNLMAVTPKASWPWVKTLLHSVYDQPDADSVHAQYDRIIGALSEKLPRVADHLDAARPDLLAFTAFPKQIWKQIWSNNPQERLNKEIRRRTDVVGIFPDRTALIRLVGAVLAEQHDEWIEGRRYLGLDVLARSRNDKPTDSSTESTEEVTPALTA | not soluble
6 | MTSDNKQEYTIHIFGQDITSQDGLFRLDEIRRVGIQIGKVEDNRSTEVARFMRTKAGRSLTNPENGFVKKINMGHLGTSWLADPVAAIEFGRWLDLGYGLAVTRAFVSMTSSATVQSAVASAEDIKPETKEFIQRHGTGLYIAGREVSQAEYSDYQAVTAGRCEWR | not soluble
7 | MTSEQYSVKLTPDFDNPKWIGRHKHMFNFLDVNHNGRISLDEMVYKASDIVINNLGATPEQAKRHKDAVEAFFGGAGMKYGVETEWPEYIEGWKRLASEELKRYSKNQITLIRLWGDALFDIIDKDQNGAISLDEWKAYTKSDGIIQSSEDCEETFRVCDIDESGQLDVDEMTRQHLGFWYTMDPACEKLYGGAVP | soluble
8 | MTSIIKLKVFSGAKDEGPLCYLLQVDGDYILLDCGWDERFGLQYFEELKPFIPKISAVLISHPDPLHLGGLPYLVSKCGLTAPVYATVPVYKMGQMFIYDMVYSHLDVEEFEHYTLDDVDTAFEKVEQVKYNQTVVLKGDSGVHFTALPAGHMLGGSIWRICRVTGEDIVYCVDFNHKKERHLNGCSFDNFNRPHLLITGAHHISLPQMRRKDRDEQLVTKILRTVRQKGDCMIVIDTAGRVLELAHLLDQLWSNADAGLSTYNLVMMSHVASSVVQFAKSQLEWMNEKLFKYDSSSARYNPFTLKHVTLCHSHQELMRVRSPKVVLCSSQDMESGFSRELFLDWCSDPRNGVILTARPASFTLAAKLVNMAERANDGVLKHEDRLISLVVKKRVALEGEELLEYKRRKAERDAEETRLRMERARRQAQANESDDSDDDDIAAPIVPRHSEKDFRSFDGSENDAHTFDIMAKWDNQQKASFFKTTKKSFPMFPYIEEKVKWDDYGEVIKPEDYTVISKIDLRKGQNKDEPVVVKKREEEEEVYNPNDHVEEMPTKCVEFKNRVEVSCRIEFIEYEGISDGESTKKLLAGLLPRQIIVVHGSRDDTRDLVAYFADSGFDTTMLKAPEAGALVDASVESFIYQVALSDALLADIQFKEVSEGNSLAWIDARVMEKEAIDNMLAVGTSNLMIDDKNREEDVNDQEENGATEGEGNAEPMEIGENGSQESLAISESGKEVENGHTNDSRTKKGTKGKIRGNLILDPLPKRLIPIHQAVFVNDPKLSDFKNLLTDKGYKAEFLSGTLLINGGNCSIRRNDTGVFQMEGAFTKDYYKLRRLFYDQFAVL | not soluble
9 | MTSLYLASGSPRRQELLAQLGVTFERIVTGIEEQRQPQESAQQYVVRLAREKARAGVAQTAKDLPVLGADTIVILNGEVLEKPRDAEHAAQMLRKLSGQTHQVMTAVALADSQHILDCLVVTDVTFRTLTDEDIAGYVASDEPLDKAGAYGIQGLGGCFVRKINGSYHAVVGLPLVETYELLSNFNALREKRDKHDG | soluble
10 | MTSSDKSLSHDVFVYGSFQEPSVVNLILECSPVMVPAQLHGYHVYRLKGRLHACISPSENGLINGKILTGLTDSQLENLDMIEGSEYVRKTVEVVLTDTSEKKQVETYVWANKDDPNLYGEWDFEEWRRLHMDKFIEASTKFIEWKKNPDGRSREEFEKFVFDDPPTAA | soluble
11 | MTSTSTPPGLARFNDLGEHAALAALHEACASTTWARRLIAARPYATADDLYTASDAAMAELTAADLAQAMAGHPPIGRPKPGDPTSAREQRGMAGASEELKADMLELNLAYQEKFGHVFLICATGRTGEQMRDAVRERIGNAPEREREIVRTELGKINRIRLARLVEEDAHALEHHHHHH | soluble
12 | MTSVTDRSAHSAERSTEHTIDIHTTAGKLAELHKRREESLHPVGEDAVEKVHAKGKLTARERIYALLDEDSFVELDALAKHRSTNFNLGEKRPLGDGVVTGYGTIDGRDVCIFSQDATVFGGSLGEVYGEKIVKVQELAIKTGRPLIGINDGAGARIQEGVVSLGLYSRIFRNNILASGVIPQISLIMGAAAGGHVYSPALTDFVIMVDQTSQMFITGPDVIKTVTGEEVTMEELGGAHTHMAKSGTAHYAASGEQDAFDYVRELLSYLPPNNSTDAPRYQAAAPTGPIEENLTDEDLELDTLIPDSPNQPYDMHEVITRLLDDEFLEIQAGYAQNIVVGFGRIDGRPVGIVANQPTHFAGCLDINASEKAARFVRTCDCFNIPIVMLVDVPGFLPGTDQEYNGIIRRGAKLLYAYGEATVPKITVITRKAYGGAYCVMGSKDMGCDVNLAWPTAQIAVMGASGAVGFVYRQQLAEAAANGEDIDKLRLRLQQEYEDTLVNPYVAAERGYVDAVIPPSHTRGYIGTALRLLERKIAQLPPKKHGNVPL | soluble
13 | MTTATSTEPTLELQRLELAELINRHAGEPFGPASAIDDLYLVRYTENVRSVPTLAQPALCILAQGSKSLFLGDEQYAYDPLHYMVVSVTLPLSAVRLDASPENPSLGLRMDLDPAEISQLIAESGPMLVPNRPSGRGLYVERTDAALLDALLRLLRLLDTPRDIAMLAPLFRREILYRLLRGPQGYRLYEIALANSQTHRVCQAITWLNNNFQQPLRIEDLAREVNLSTSTLHHRFKAVTSMSPLQYQKQLRLQEARRLMLNDGLEAAVAAYRVGYESPSQFSREYSRLYGAPPIRDVARLRATAV | not soluble
14 | MTTEFNEIMKEINDSETIIIHRHVRPDPDAYGSQLGLKNYLKLKFPDKKIFAVGETEPSLDFIGTFDEISDDTYNEALVIVCDTANSPRISDERFNQGRLLVKIDHHPAVDQYGDINFVNDQASSTSEIIFDFISHFNDIPIIDASVARVLYLGIVGDTGRFLFNNTTSHTMGVAGQLLTFPFNHNEELNKMGEKDPKLLPFQGYVLQHFDLNEKGFCKVTITKEILEQFDIAANQASLFVNAIADIQGLKIWVFAVDEGTEIRCRIRSKGIVINDIASDFGGGGHPNASGVSVRDWAQFETLAEALNNKLLEHHHHHH | soluble
15 | MTTEIKKLDPDTAIDIAYDIFLEMAGENLDPADILLFNLQFEERGGVEFVETADDWEEEIGVLIDPEEYAEVWVGLVNEQDEMDDVFAKFLISHREEDREFHVIWKK | soluble
16 | MTTETQADRTQQAVGRIIGSIGVVTTQTTGRHQGILTSWVSQASFTPPGIMLAIPGEFDAYGLAGQNKAFVLNLLQEGRSVRRHFDHQPLPKDGDNPFSRLEHYSTQNGCLILAEALAYLECLVQSWSNIGDHVLVYATVQAGQVLQPNGITAIRHRKSGGQYLEHHHHHH | not soluble
17 | MTTGGEDSRRTLSPGTMIVIVGPSGAGKDTLMDYAAAQLSGRPGFHFTRRVITRSCDAGGENHDAVSMHEFNQLEDAGAFAVSWQAHGLKYGIPAAVYRHLEAGDVVIANGSRSALPHFGTAFSRLKVVNIVARPDVLARRLEQRGRESRDDILRRLERSSLAVAGDFDVTTVDNSGAIEDAGKTIMQVLQQSAGSSQP | not soluble
18 | MTTKEITLDENGFATEAGFITVYNYSGETREYISTSTEYLAVGVGIPACSCLDAPVTHKAGYAICRSADFNSWEYVPDHRGEIVFSTETGESKEITAPGDYPDNTTTIAPLTPYDKWDGEKWVTDTEAQHSAAVDAAEAQRQSLIDTAMASISLIQLKLQAGRKLTQAETTRLNAVLDYIDAVTATDTSTAPDVIWPELPEA | not soluble
19 | MTTKFVVGYDGSAASRRALDFAMERAKAGGASIIVAHVLEWSPYSFLTPTEIEERHKRRAEEMARAETAILAPLKAELAGSGVEIETAIRYGQVADTLCDIATKSGAAQIFIARQGESGLAARVFGSVAGTLAQYAPVPCTIVP | not soluble
20 | MTTPAPVPRITVLLPVYNGEQYLREALDSLLTQTYRNFSLLAVDDGSTDSSLEILRSIKDPRLSVKVNPRNRGLINTLNESLDLIQSEYVARMDADDIATPYRLEEQLAFMDAHPDVGLCGGYYERFTDTESIVVRPPTTHEDISYALIFDNVMAHNTVMFRRSVLERYRLRYDPAFAYAEDYELWVRFARYSRLANLPRVLVRYRFHPANTSSRFRHEQQIAAAKIRHIHRTNLGLEPRPGDAALHRQLFDMRFEGDLPELTAAGIWLSKLYRVGVRRCRQNPVSTFLEFNKLWYSACGRLADHGLKVFAQFLRQPFGFLGNPAYTLKLAYRCWRRIRIALEHHHHHH | not soluble
21 | MTTQAPTFTQPLQSVVVLEGSTATFEAHISGFPVPEVSWFRDGQVISTSTLPGVQISFSDGRAKLTIPAVTKANSGRYSLKATNGSGQATSTAELLVKAETAPPNFVQRLQSMTVRQGSQVRLQVRVTGIPTPVVKFYRDGAEIQSSLDFQISQEGDLYSLLIAEAYPEDSGTYSVNATNSVGRATSTAELLVQGETREEF | soluble
22 | MTTTGLRPRLNVRQRKDTGYLPHSSPFSLQFRPAILYSDGYLPQVPEDKNETDKIHTPRIVPQKLERTPSDTSRSRGCHCFYAGWL | not soluble
